Results on one molecule are retold here after patent US20260217862A1 (NBIOS, published 2026).

This experiment concerns the target T1, Human Integrin αVβ3 (human, UniProt P06756 31-992; P05106 27-718).
T1 construct: Commercial heterodimer from ACROBiosystems; No catalogue number or construct limits are printed; also called Integrin aVß3; integrin (ITG)
Description: ELISA, CtsZ coated 200 ng/well, integrin αVβ3 titrated from 200 nM in 1/3 steps, detected with biotinylated anti-integrin alpha V antibody and streptavidin-HRP. As to the method: After coating 1×PBS (pH 7.4) containing 200 ng of CtsZ in each well of a 96-well high-binding plate at 4° C. for 16 hours, followed by washing twice with a washing buffer (20 mM Tris-HCl, 150 mM NaCl, 1 mM MnCl₂, 0.05% Tween-20), blocking was performed at room temperature for 2 hours using a blocking buffer (washing buffer containing 3% BSA). After washing twice with a washing buffer, binding was performed at room temperature for 2 hours using a dilution buffer (washing buffer containing 0.5% BSA) containing 200 nM, ⅓ eq. integrin αVβ3. After washing 4 times with a washing buffer, biotinylated anti-human integrin alpha V antibody (diluted to 1:100 with dilution buffer) was treated at room temperature for 1 hour. After washing 4 times with a washing buffer, HRP-conjugated streptavidin was treated at room temperature for 1 hour. After washing 4 times with a washing buffer, followed by addition of ultra TBM matrix, reaction was performed for 2 minutes and the reaction was stopped by adding 2 M H₂SO₄. KD values were calculated from the absorbance at 450 nm using the Prism7 software.
Because CtsZ has an RGD motif binding to integrin, particularly integrin αVβ3, in the pro-region, it was investigated whether the purified CtsZ was in active form by measuring binding affinity for integrin αVβ3 purchased from ACROBiosystems.

T1 sequence (P06756 31-992 limits assumed, chain 1 of 2): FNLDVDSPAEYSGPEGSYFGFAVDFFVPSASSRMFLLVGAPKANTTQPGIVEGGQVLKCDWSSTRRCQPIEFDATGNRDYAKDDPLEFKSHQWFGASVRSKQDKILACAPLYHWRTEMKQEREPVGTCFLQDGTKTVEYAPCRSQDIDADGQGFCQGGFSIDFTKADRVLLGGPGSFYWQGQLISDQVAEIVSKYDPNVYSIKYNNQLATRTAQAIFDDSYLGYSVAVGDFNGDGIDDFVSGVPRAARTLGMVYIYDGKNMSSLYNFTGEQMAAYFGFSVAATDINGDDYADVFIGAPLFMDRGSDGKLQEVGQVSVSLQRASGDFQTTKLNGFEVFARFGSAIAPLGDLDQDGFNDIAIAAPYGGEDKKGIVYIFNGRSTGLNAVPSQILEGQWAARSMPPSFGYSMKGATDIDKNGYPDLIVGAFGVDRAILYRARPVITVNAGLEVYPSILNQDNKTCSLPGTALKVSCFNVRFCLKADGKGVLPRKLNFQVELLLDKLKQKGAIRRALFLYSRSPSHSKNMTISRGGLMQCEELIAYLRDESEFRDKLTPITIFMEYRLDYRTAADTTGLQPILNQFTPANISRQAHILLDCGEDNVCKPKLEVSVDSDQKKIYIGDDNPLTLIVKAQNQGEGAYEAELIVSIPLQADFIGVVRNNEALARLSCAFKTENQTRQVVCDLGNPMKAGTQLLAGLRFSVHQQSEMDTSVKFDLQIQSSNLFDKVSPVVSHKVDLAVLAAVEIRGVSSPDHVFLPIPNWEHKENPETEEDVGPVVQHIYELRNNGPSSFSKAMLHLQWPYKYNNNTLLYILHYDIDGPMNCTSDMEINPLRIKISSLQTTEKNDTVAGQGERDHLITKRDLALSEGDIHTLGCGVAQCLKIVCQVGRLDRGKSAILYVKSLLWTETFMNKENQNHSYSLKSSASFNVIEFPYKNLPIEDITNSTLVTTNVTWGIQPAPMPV
T1 sequence (P05106 27-718 limits assumed, chain 2 of 2): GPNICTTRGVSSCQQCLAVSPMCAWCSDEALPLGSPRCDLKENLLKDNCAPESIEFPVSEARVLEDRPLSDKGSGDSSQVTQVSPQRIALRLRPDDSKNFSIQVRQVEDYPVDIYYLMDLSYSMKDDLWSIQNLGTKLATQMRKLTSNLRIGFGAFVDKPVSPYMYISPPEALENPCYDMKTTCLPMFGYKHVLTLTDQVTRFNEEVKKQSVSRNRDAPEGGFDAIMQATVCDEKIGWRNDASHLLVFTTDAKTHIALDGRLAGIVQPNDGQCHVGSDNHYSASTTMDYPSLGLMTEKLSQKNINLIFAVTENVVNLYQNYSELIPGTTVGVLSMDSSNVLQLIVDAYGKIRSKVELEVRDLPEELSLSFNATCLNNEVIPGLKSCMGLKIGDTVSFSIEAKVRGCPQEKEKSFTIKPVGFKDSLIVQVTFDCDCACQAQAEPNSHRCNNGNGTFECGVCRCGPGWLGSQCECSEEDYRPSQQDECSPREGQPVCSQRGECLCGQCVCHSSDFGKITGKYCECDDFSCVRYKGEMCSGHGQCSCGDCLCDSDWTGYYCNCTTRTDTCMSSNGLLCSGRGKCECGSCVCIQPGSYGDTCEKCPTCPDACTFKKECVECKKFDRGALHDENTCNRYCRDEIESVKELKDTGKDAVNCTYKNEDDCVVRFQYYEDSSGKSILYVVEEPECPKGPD

B1: recombinant human cathepsin Z with C-terminal 6x-His tag (enzyme)
chain: not shown
notes: Secreted from Expi-293F cells and purified on Ni-NTA; Glycosylated, about 37 kDa on SDS-PAGE against 33 kDa predicted; also called CtsZ; purified CtsZ
The molecule B1 yielded a Kd of about 137 nM.
